From article PMC3836952

What was measured:
[1] = molecular target: Cys25 (UniProt position 150, GACGSCWAFSA); assay: kinetics; details: 35 °C, constant ionic strength (four-component buffer; value not stated), 25 mM glycine, 25 mM acetic acid, 25 mM Mes, 75 mM Tris, 5 mM DTT, pH adjusted with HCl or NaOH
[2] = molecular target: His163 (UniProt position 288, GKQLNHGVLLV); assay: kinetics; details: 35 °C, constant ionic strength (four-component buffer; value not stated), 25 mM glycine, 25 mM acetic acid, 25 mM Mes, 75 mM Tris, 5 mM DTT, pH adjusted with HCl or NaOH
[3] = Enzyme-substrate complex (saturating Z-FR-MCA) in the presence of 40 µM heparin (10 kDa bovine lung heparin)
[4] = Enzyme-substrate complex (saturating Z-FR-MCA), no heparin (control)

Cysteine protease B isoform CPB2.8 lacking the C-terminal extension (CPB2.8ΔCTE, rCPB2.8), cathepsin L-like (Leishmania mexicana; none (C-terminal extension deleted; residue range not stated))
pKa [1, 3]: 4.6± 0.1
pKa [1, 4]: 5.1±0.1
pKa [2, 3]: 8.8±0.1
pKa [2, 4]: 7.8±0.1
